The target in this test is inactive C105A human m-calpain heterodimer (C105A large subunit with truncated small subunit) (human, UniProt P17655 20-700; P04632 1-268, C105A, Ca2+-bound during hCSD1 binding. C-terminal His tag of the large subunit omitted. The ΔG2 small-subunit limits are not printed (they are in the cited Hata 2012 paper); the 184-residue small subunit of). Nature of the test: BLI; GST-immobilized hCSD1; purified C105A-calpain from the affinity method in solution. As to conditions: both partners purified. (BLI is a label-free optical method that tracks binding on a fibre tip over time.)

B1: N-terminal glutathione S-transferase-tagged human calpastatin domain 1 (domain or fragment, UniProt P20810 137-277, looked up)
chain: AVPVESKPDKPSGKSGMDAALDDLIDTLGGPEETEEENTTYTGPEVSDPMSSTYIEELGKREVTIPPKYRELLAKKEGITGPPADSSKPIGPDDAIDALSSDFTCGSPTAAGKKTEKEESTEVLKAQSAGTVRSAAPPQEK
notes: synthetic gene in pGEX-4T-1; GST is fused N-terminally through a linker; the tag can be removed by thrombin; also called GST-hCSD1; GST-tagged hCSD1; source: E. coli BL21(DE3), purified (GSTrap FF); not shown: GST, N-terminal, kept
A word on the Kd: it is the constant that tells how readily two partners part at equilibrium. In turn, B1 returned a Kd of 1.7 nM.

Values taken from paper PMC5358782, “Affinity purification of human m-calpain through an intrinsically disordered inhibitor, calpastatin” (PLoS ONE, 2017).
